Reference: patent US20110104715A1 (published 2011)

Columns and labels:
[1] = target: T1, Wild-type human APP695 (β-amyloid precursor protein) (human, UniProt P05067-4 18-695); test: co-immunoprecipitation with anti-FLAG M2 from co-transfected 293T cells, western blot for APP with 5A3/1G7
T1 construct: also called full-length APP

[2] = target: T2, APPΔC31 (N-terminal 664 amino acids of APP695) (human, UniProt P05067 18-664); test: co-immunoprecipitation (anti-FLAG M2) from co-transfected 293T cells, western blot with 5A3/1G7
T2 construct: Used both for the deletion construct and for the product of caspase cleavage of APP at Asp664; also called APPdeltaC31; C-terminal truncated APP

[3] = target: T1, Wild-type human APP695 (β-amyloid …); test: co-immunoprecipitation with anti-FLAG M2 from co-transfected 293T cells, densitometry of the APP band

| quantitative densitometry intensity of co-immunoprecipitated APP [1] | binding result [2] | intensity relative to the other caspases tested [3] [%] | Binder |
| --- | --- | --- | --- |
| 2.2 | no binding | ~200 | FLAG-tagged catalytic mutant caspase-8 (C360A) (enzyme, UniProt Q14790 1-479, looked up, Printed as 'caspase-S(C360A)', read as caspase-8; FLAG tag present; also called C8; caspase-S(C360A)) MDFSRNLYDIGEQLDSEDLASLKFLSLDYIPQRKQEPIKDALMLFQRLQEKRMLEESNLSFLKELLFRINRLDLLITYLNTRKEEMERELQTPGRAQISAYRVMLYQISEEVSRSELRSFKFLLQEEISKCKLDDDMNLLDIFIEMEKRVILGEGKLDILKRVCAQINKSLLKIINDYEEFSKERSSSLEGSPDEFSNGEELCGVMTISDSPREQDSESQTLDKVYQMKSKPRGYCLIINNHNFAKAREKVPKLHSIRDRNGTHLDAGALTTTFEELHFEIKPHDDCTVEQIYEILKIYQLMDHSNMDCFICCILSHGDKGIIYGTDGQEAPIYELTSQFTGLKCPSLAGKPKVFFIQAAQGDNYQKGIPVETDSEEQPYLEMDLSSPQTRYIPDEADFLLGMATVNNCVSYRNPAEGTWYIQSLCQSLRERCPRGDDILTILTEVNYEVSNKDDKKNMGKQMPQPTFTLRKKLVFPSD |
| 1.1 | – | – | FLAG-tagged catalytic mutant caspase-9 (C287A) (enzyme, UniProt P55211 1-416, looked up, FLAG tag present; also called C9) MDEADRRLLRRCRLRLVEELQVDQLWDALLSRELFRPHMIEDIQRAGSGSRRDQARQLIIDLETRGSQALPLFISCLEDTGQDMLASFLRTNRQAAKLSKPTLENLTPVVLRPEIRKPEVLRPETPRPVDIGSGGFGDVGALESLRGNADLAYILSMEPCGHCLIINNVNFCRESGLRTRTGSNIDCEKLRRRFSSLHFMVEVKGDLTAKKMVLALLELAQQDHGALDCCVVVILSHGCQASHLQFPGAVYGTDGCPVSVEKIVNIFNGTSCPSLGGKPKLFFIQAAGGEQKDHGFEVASTSPEDESPGSNPEPDATPFQEGLRTFDQLDAISSLPTPSDIFVSYSTFPGFVSWRDPKSGSWYVETLDDIFEQWAHSEDLQSLLLRVANAVSVKGIYKQMPGCFNFLRKKLFFKTS |

Continued, binder first:

| Binder | quantitative densitometry intensity of co-immunoprecipitated APP [1] | binding result [2] | intensity relative to the other caspases tested [3] [%] |
| --- | --- | --- | --- |
| FLAG-tagged catalytic mutant caspase-7 (C186A) (enzyme, UniProt P55210 1-303, looked up, FLAG tag present; also called C7) MADDQGCIEEQGVEDSANEDSVDAKPDRSSFVPSLFSKKKKNVTMRSIKTTRDRVPTYQYNMNFEKLGKCIIINNKNFDKVTGMGVRNGTDKDAEALFKCFRSLGFDVIVYNDCSCAKMQDLLKKASEEDHTNAACFACILLSHGEENVIYGKDGVTPIKDLTAHFRGDRCKTLLEKPKLFFIQAARGTELDDGIQADSGPINDTDANPRYKIPVEADFLFAYSTVPGYYSWRSPGRGSWFVQALCSILEEHGKDLEIMQILTRVNDRVARHFESQSDDPHFHEKKQIPCVVSMLTKELYFSQ | 1 | – | – |
| FLAG-tagged catalytic mutant caspase-6 (C163A) (enzyme, UniProt P55212 1-293, looked up, FLAG tag present; also called C6) MSSASGLRRGHPAGGEENMTETDAFYKREMFDPAEKYKMDHRRRGIALIFNHERFFWHLTLPERRGTCADRDNLTRRFSDLGFEVKCFNDLKAEELLLKIHEVSTVSHADADCFVCVFLSHGEGNHIYAYDAKIEIQTLTGLFKGDKCHSLVGKPKIFIIQAARGNQHDVPVIPLDVVDNQTEKLDTNITEVDAASVYTLPAGADFLMCYSVAEGYYSHRETVNGSWYIQDLCEMLGKYGSSLEFTELLTLVNRKVSQRRVDFCKDPSAIGKKQVPCFASMLTKKLHFFPKSN | 1.2 | – | – |
